# Data taken from paper PMC4456216.
# How the values were obtained:
# Test in all cases: ITC
# [1] = target: BMAL1 TAD V602A I603F (mouse)
# [2] = target: BMAL1 transactivation domain (TAD), residues 579-626 (mouse)
# [3] = target: BMAL1 TAD S605N L606Y (mouse)
# Chain of mouse CBP KIX domain (P45481 586-665): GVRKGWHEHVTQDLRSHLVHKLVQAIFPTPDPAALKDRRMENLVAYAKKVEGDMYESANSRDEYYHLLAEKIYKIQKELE
substance,measurement,setting,value
mouse CBP KIX domain (from UniProt P45481 586-665) (domain or fragment),stoichiometry N,[1],0.82
same,stoichiometry N,[2],0.74
same,stoichiometry N,[3],1.06
